Test results taken from US5985836A, “Alpha-1 proteinase inhibitor binding peptides” (Bayer Corporation, priority 1998, dated 1999).
Values belong to the substance of their own block, whether it stands above or below them. Ends that are not written are not given here.

How the values were obtained:
[1] = target: T1, A1PI (Homo sapiens, UniProt P01009); test: A1PI binding on peptide-resin column, injection of 1 mg A1PI in equilibration buffer; conditions: for Percent A1PI Eluted by Fraction Based on Absorbance at 280 nm, 1M NaCl / Percent A1PI Eluted by Fraction Based on Absorbance at 280 nm, 2% Acetic Acid / Percent A1PI Eluted by Fraction Based on Absorbance at 280 nm, Flowthrough / Percent A1PI Eluted by Fraction, 1M NaCl / Percent A1PI Eluted by Fraction, 2% Acetic Acid / Percent A1PI Eluted by Fraction, Flowthrough: 1 mg A1PI in equilibration buffer; for Percent AlPI Eluted by Fraction, 1M NaCl / Percent AlPI Eluted by Fraction, 2% Acetic Acid / Percent AlPI Eluted by Fraction, Flowthrough: sequence order, 1 mg AlPI; for % of Total A1PI Eluted by Fraction (Based on Absorbance at 280 nm), 1M NaCl / % of Total A1PI Eluted by Fraction (Based on Absorbance at 280 nm), 2% Acetic Acid / % of Total A1PI Eluted by Fraction (Based on Absorbance at 280 nm), Flowthrough: 1 mg A1PI
T1 construct: Human plasma is currently the only approved source of therapeutic AlPI
T1 sequence (P01009 25-418): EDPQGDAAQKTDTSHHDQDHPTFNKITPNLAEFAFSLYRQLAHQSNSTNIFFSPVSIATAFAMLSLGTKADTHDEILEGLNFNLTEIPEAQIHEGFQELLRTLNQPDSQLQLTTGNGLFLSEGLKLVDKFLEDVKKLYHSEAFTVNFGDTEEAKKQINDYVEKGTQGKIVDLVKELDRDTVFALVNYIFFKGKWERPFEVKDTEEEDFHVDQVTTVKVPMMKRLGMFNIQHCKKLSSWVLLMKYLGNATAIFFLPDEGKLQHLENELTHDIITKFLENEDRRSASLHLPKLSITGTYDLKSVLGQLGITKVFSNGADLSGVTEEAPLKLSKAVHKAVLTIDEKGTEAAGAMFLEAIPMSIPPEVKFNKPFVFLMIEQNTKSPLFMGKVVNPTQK
Experimental: (§1) Confirmatory binding assays were performed in a column chromatographic format on a microbore HPLC using individual peptide sequences synthesized directly onto the Toyopearl 650 M Chelate resin which had been modified with Totda followed by an alanine residue (A-Totda-Toyopearl), at a final substitution density of 0.1 mmole/g resin. The resin was packed into 0.4×5 cm columns (Thomson, Springfield, Va.) and tested on the Michrom HPLC system (Michrom BioResources, Auburn, Calif.). The elution program for all trials utilized the following method. The column was pre-equilibrated with equilibration buffer (as above). 1 ml of sample was injected and allowed sufficient time to flowthrough the column using equilibration buffer. The column was then washed with step elutions of 1M NaCl and 3M NaCl in equilibration buffer. The column was exposed to equilibration buffer with 0.1M NaCl. Any remaining protein was eluted with elution buffer (2% by volume glacial acetic acid in water).
(§2) A Gilson FC204 fraction collector at the HPLC outlet collected individual eluates for further analysis. Fractions collected from the 2% acetic acid eluates were neutralized with 2M Tris, pH 10.5 to bring the pH to neutrality. The protein samples were reconstituted in equilibration buffer unless otherwise stated. The samples were analyzed by the integration of the absorbance at 280 nm or by immunonephelometry. The specific method of determination is presented for each figure.
Tables 2 and 3 present the elution profiles for 19 sequences based on the injection of 1 mg AlPI in equilibration buffer at 4° C. and 20° C., respectively. The columns were run at a constant flow rate of865 μl/min (413 cm/hr) or 523 μl/min (250 cm/hr). No dependence of the elution profile with flow rate was found. The Percent AlPI Eluted by Fraction represents the amount eluted in the flowthrough, 1M NaCl wash, and 2% acetic acid fractions relative to the total AlPI eluted. The percentages are based on either the integration of the peak areas at […]

[2] = target: T1, A1PI; test: A1PI purification from 5 mg hSA + 1 mg A1PI on peptide column, A1PI mass balance; format: binding; conditions: A1PI, 5 mg hSA + 1 mg A1PI
Experimental: as §1, §2
Columns were assayed with a mixture of 5 mg human serum albumin (hSA)+1 mg AlPI at 4° C. (Table 4, Seq. ID 1-11, 15, 17) and 20° C. (Table 5, Seq. ID 1-10, 13, 15, 17). The chromatography method was modified to provide for a 10 minute residence time of sample in the column by decreasing the flow to 17 μl/min (10 cm/hr) upon injection. Following the incubation, the flow was set at 865 μl/min (413 cm/hr) for the step elutions of 1M NaCl, 3M NaCl, and 2% acetic acid. The mass balances presented are based upon immunonephelometry. The Percent Eluted value is protein-specific and based on the amount of the protein eluted in a […]

[3] = 4° C., relative to total eluted
[4] = 20° C., * Below detection limit
[5] = 20° C., relative to total eluted
[6] = Table 19, 4° C., * Below detection limit
[7] = Table 19, 4° C., relative to total loaded
[8] = Table 19, 20° C., * Below detection limit
[9] = Table 19, 20° C., relative to total loaded
[10] = VIWLVR N-terminal point mutations, 4° C.

Percent A1PI Eluted by Fraction Based on Absorbance at 280 nm, 1M NaCl ([1]; 4° C.): 80%
Percent A1PI Eluted by Fraction Based on Absorbance at 280 nm, 2% Acetic Acid ([1]; 4° C.): 20%
Percent A1PI Eluted by Fraction Based on Absorbance at 280 nm, Flowthrough ([1]; 4° C.): 0%
Percent A1PI Eluted by Fraction, 1M NaCl ([1]; 20° C.): 67%
Percent A1PI Eluted by Fraction, 2% Acetic Acid ([1]; 20° C.): 33%
Percent A1PI Eluted by Fraction, Flowthrough ([1]; 20° C.): 0%
Mass Protein per Eluate Fraction, 1M NaCl ([2]; 4° C., * Below detection limit): 0.44 mg
Mass Protein per Eluate Fraction, 2% Ac. Acid ([2]; 4° C., * Below detection limit): 0.06 mg
Mass Protein per Eluate Fraction, Flow ([2]; 4° C., * Below detection limit): 0.17 mg
Percent Eluted by Fraction, 1M NaCl [2, 3]: 66%
Percent Eluted by Fraction, 2% Ac. Acid [2, 3]: 9%
Percent Eluted by Fraction, Flow [2, 3]: 25%
Mass Protein per Eluate Fraction, 1M NaCl [2, 4]: 0.15 mg
Mass Protein per Eluate Fraction, 2% Ac. Acid [2, 4]: 0.40 mg
Mass Protein per Eluate Fraction, 3M NaCl [2, 4]: 0.05 mg
Mass Protein per Eluate Fraction, Flow [2, 4]: 0.16 mg
Percent Eluted by Fraction, 1M NaCl [2, 5]: 20%
Percent Eluted by Fraction, 2% Ac. Acid [2, 5]: 52%
Percent Eluted by Fraction, 3M NaCl [2, 5]: 7%
Percent Eluted by Fraction, Flow [2, 5]: 21%
Substance: WKLWRW

binding of AlPI (in words) [1]: excellent binding
Percent AlPI Eluted by Fraction, 1M NaCl ([1]; 4° C.): 27%
Percent AlPI Eluted by Fraction, 2% Acetic Acid ([1]; 4° C.): 65%
Percent AlPI Eluted by Fraction, Flowthrough ([1]; 4° C.): 8%
Percent AlPI Eluted by Fraction, 1M NaCl ([1]; 20° C.): 3%
Percent AlPI Eluted by Fraction, 2% Acetic Acid ([1]; 20° C.): 90%
Percent AlPI Eluted by Fraction, Flowthrough ([1]; 20° C.): 7%
Mass Protein per Eluate Fraction, 1M NaCl [2, 6]: 0.11 mg
Mass Protein per Eluate Fraction, 2% Acetic Acid [2, 6]: 0.25 mg
Mass Protein per Eluate Fraction, Flow [2, 6]: 0.48 mg
Percent Eluted by Fraction, 1M NaCl [2, 7]: 13%
Percent Eluted by Fraction, 2% Acetic Acid [2, 7]: 30%
Percent Eluted by Fraction, 3M NaCl [2, 7]: 0%
Percent Eluted by Fraction, Flow [2, 7]: 57%
Mass Protein per Eluate Fraction, 1M NaCl [2, 8]: 0.04 mg
Mass Protein per Eluate Fraction, 2% Acetic Acid [2, 8]: 0.54 mg
Mass Protein per Eluate Fraction, Flow [2, 8]: 0.22 mg
Percent Eluted by Fraction, 1M NaCl [2, 9]: 5%
Percent Eluted by Fraction, 2% Acetic Acid [2, 9]: 68%
Percent Eluted by Fraction, 3M NaCl [2, 9]: 0%
Percent Eluted by Fraction, Flow [2, 9]: 28%
Substance: RVLFIV: reversed sequence of VIFLVR

Percent A1PI Eluted by Fraction Based on Absorbance at 280 nm, 1M NaCl ([1]; 4° C.): 100%
Percent A1PI Eluted by Fraction Based on Absorbance at 280 nm, 2% Acetic Acid ([1]; 4° C.): 0%
Percent A1PI Eluted by Fraction Based on Absorbance at 280 nm, Flowthrough ([1]; 4° C.): 0%
Percent A1PI Eluted by Fraction, 1M NaCl ([1]; 20° C.): 91%
Percent A1PI Eluted by Fraction, 2% Acetic Acid ([1]; 20° C.): 2%
Percent A1PI Eluted by Fraction, Flowthrough ([1]; 20° C.): 7%
Mass Protein per Eluate Fraction, 1M NaCl [2, 4]: 0.80 mg
Mass Protein per Eluate Fraction, Flow [2, 4]: 0.02 mg
Percent Eluted by Fraction, 1M NaCl [2, 5]: 97%
Percent Eluted by Fraction, 2% Ac. Acid [2, 5]: 0%
Percent Eluted by Fraction, 3M NaCl [2, 5]: 0%
Percent Eluted by Fraction, Flow [2, 5]: 3%
Substance: WIKWTK

% of Total A1PI Eluted by Fraction (Based on Absorbance at 280 nm), 1M NaCl ([1]; Trp position mutations, 4° C.): 0%
% of Total A1PI Eluted by Fraction (Based on Absorbance at 280 nm), 2% Acetic Acid ([1]; Trp position mutations, 4° C.): 0%
% of Total A1PI Eluted by Fraction (Based on Absorbance at 280 nm), Flowthrough ([1]; Trp position mutations, 4° C.): 100%
% of Total A1PI Eluted by Fraction (Based on Absorbance at 280 nm), 1M NaCl ([1]; Trp position mutations, 20° C.): 0%
% of Total A1PI Eluted by Fraction (Based on Absorbance at 280 nm), 2% Acetic Acid ([1]; Trp position mutations, 20° C.): 16%
% of Total A1PI Eluted by Fraction (Based on Absorbance at 280 nm), Flowthrough ([1]; Trp position mutations, 20° C.): 84%
Substance: V I D L V R: VIWLVR with Trp at position 3 replaced by Asp (VIDLVR)

% of Total A1PI Eluted by Fraction (Based on Absorbance at 280 nm), 1M NaCl [1, 10]: 37%
% of Total A1PI Eluted by Fraction (Based on Absorbance at 280 nm), 2% Acetic Acid [1, 10]: 10%
% of Total A1PI Eluted by Fraction (Based on Absorbance at 280 nm), Flowthrough [1, 10]: 53%
Substance: DHWLVR: point mutation of VIWLVR on Ala-Totda-Toyopearl (not fully specified (C-terminus))

% of Total A1PI Eluted by Fraction (Based on Absorbance at 280 nm), 1M NaCl [1, 10]: 89%
% of Total A1PI Eluted by Fraction (Based on Absorbance at 280 nm), 2% Acetic Acid [1, 10]: 11%
% of Total A1PI Eluted by Fraction (Based on Absorbance at 280 nm), Flowthrough [1, 10]: 0%
Substance: HSWLVR: point mutation of VIWLVR on Ala-Totda-Toyopearl (not fully specified (C-terminus))

% of Total A1PI Eluted by Fraction (Based on Absorbance at 280 nm), 1M NaCl ([1]; VIFLVR point mutations, 4° C.): 46%
% of Total A1PI Eluted by Fraction (Based on Absorbance at 280 nm), 2% Acetic Acid ([1]; VIFLVR point mutations, 4° C.): 54%
% of Total A1PI Eluted by Fraction (Based on Absorbance at 280 nm), Flowthrough ([1]; VIFLVR point mutations, 4° C.): 0%
% of Total A1PI Eluted by Fraction (Based on Absorbance at 280 nm), 1M NaCl ([1]; VIFLVR point mutations, 20° C.): 11%
% of Total A1PI Eluted by Fraction (Based on Absorbance at 280 nm), 2% Acetic Acid ([1]; VIFLVR point mutations, 20° C.): 89%
% of Total A1PI Eluted by Fraction (Based on Absorbance at 280 nm), Flowthrough ([1]; VIFLVR point mutations, 20° C.): 0%
Substance: V I F A V R: point mutation of VIFLVR, position 4 (VIFAVR)

% of Total A1PI Eluted by Fraction (Based on Absorbance at 280 nm), 1M NaCl [1, 10]: 1%
% of Total A1PI Eluted by Fraction (Based on Absorbance at 280 nm), 2% Acetic Acid [1, 10]: 1%
% of Total A1PI Eluted by Fraction (Based on Absorbance at 280 nm), Flowthrough [1, 10]: 98%
Substance: SDWLVR: point mutation of VIWLVR on Ala-Totda-Toyopearl (not fully specified (C-terminus))
